Results reported in patent US9644025.

Molecular target: Human FcγRII, His-tagged domain (R&D Systems, Cat # 1330-CD) (human) (UniProt P12318)
Test: SPR (Biacore 3000), His-tagged receptor captured by penta-His antibody on CM5 chip, antibody injected; steady-state RU relative to control

- Relative Binding Capability (%): 100%
Substance: Bapineuzumab (antibody)
